These results are taken from PMC7241105 (bioRxiv, 2020).

This assay addresses SARS-CoV-2 receptor binding domain (RBD) (SARS-CoV-2, UniProt P0DTC2). As to the kind of experiment: BLI. In general terms: In BLI a coated tip is dipped into the sample, and binding shifts an interference pattern.

B1: CV5 (antibody, V domains shown)
VH: QVQLVQSGAEVKKPGASVKVTCKASGYTFTSYYLHWVRQAPGQGLEWMGIINPSGGTTSYAQKFQGRVTMTRDTSTSTVYMELSSLRSEDTAVYYCARAGRRYSSSDDGAFDIWGQGTMVTVSS
VL: not shown
B1: the binding result is given as “binds”.

B2: CV43 (antibody, V domains shown)
VH: QVQLVESGGGVVQPGRSLRLSCAASGFTFSSYAMHWVRQAPGKGLEWVAVISYDGSNKYYADSVKGRFTISRDNSKNTLYLQMNSLRAEDTAVYYCARVTVVHFDYWGQGTLVTVSS
VL: NFMLTQPHSVSESPGKTVTISCTGSSGSIASNYVQWYQQRPGSAPTTVIYEDNQRPSGVPDRFSGSIDSSSNSASLTISGLKTEDEADYYCQSYDSSNWVFGGGTKLTVL
With B2, the binding result is on record as “binds”.
